These results are taken from US20240058465A1 (SUTRO BIOPHARMA, published 2024).

For this assay, the target named is receptor tyrosine kinase orphan receptor 1 (ROR1) on Ntera-2 cells (human, UniProt Q01973 30-937). The experiment in a line: cell-based or functional assay.

B1: Conjugate 26 (D04 x A05-F404-LP8 biparatopic) (bispecific antibody, human IgG1, kappa)
heavy 1: MEVQLVESGGGLVQPGGSLRLSCAASGFNISDYDIHWVRQAPGKGLEWVGGIDPADGSTDYADSVKGRFTISADTSKNTAYLQMNSLRAEDTAVYYCARDYGVYDYWGQGTLVTVSSASTKGPSVFPLAPSSKSTSGGTAALGCLVKDYFPEPVTVSWNSGALTSGVHTFPAVLQSSGLYSLSSVVTVPSSSLGTQTYICNVNHKPSNTKVDKKVEPKSCDKTHTCPPCPAPELLGGPSVFLFPPKPKDTLMISRTPEVTCVVVDVSHEDPEVKFNWYVDGVEVHNAKTKPREEQYNSTYRVVSVLTVLHQDWLNGKEYKCKVSNKALPAPIEKTISKAKGQPREPQVYTLPPSREEMTKNQVSLWCLVKGFYPSDIAVEWESNGQPENNYKTTPPVLDSDGSFLYSKLTVDKSRWQQGNVFSCSVMHEALHNHYTQKSLSLSPGK
heavy 2: MEVQLVESGGGLVQPGGSLRLSCAASGFNIKEYHIHWVRQAPGKGLEWVGYISPNSGSTYYADSVKGRFTISADTSKNTAYLQMNSLRAEDTAVYYCARDHRRYVRPFDYWGQGTLVTVSSASTKGPSVFPLAPSSKSTSGGTAALGCLVKDYFPEPVTVSWNSGALTSGVHTFPAVLQSSGLYSLSSVVTVPSSSLGTQTYICNVNHKPSNTKVDKKVEPKSCDKTHTCPPCPAPELLGGPSVFLFPPKPKDTLMISRTPEVTCVVVDVSHEDPEVKFNWYVDGVEVHNAKTKPREEQYNSTYRVVSVLTVLHQDWLNGKEYKCKVSNKALPAPIEKTISKAKGQPREPQVYTLPPSREEMTKNQVSLSCAVKGFYPSDIAVEWESNGQPENNYKTTPPVLDSDGSFLVSKLTVDKSRWQQGNVFSCSVMHEALHNHYTQKSLSLSPGK
light: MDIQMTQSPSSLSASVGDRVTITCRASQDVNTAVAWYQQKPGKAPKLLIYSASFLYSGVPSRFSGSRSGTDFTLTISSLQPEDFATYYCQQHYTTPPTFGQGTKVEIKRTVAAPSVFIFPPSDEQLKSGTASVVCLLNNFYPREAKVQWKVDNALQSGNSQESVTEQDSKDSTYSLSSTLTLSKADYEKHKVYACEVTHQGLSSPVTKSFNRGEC
modifications: pAMF at F404 (EU), linked to LP8
B1: the “cell killing EC50, NTERA-2 cells” value was 0.028 nM and the “cell killing Span, NTERA-2 cells” value came out at 84%.

B2: Conjugate 27 (D04 x B04-F404-LP8 biparatopic) (bispecific antibody, human IgG1, kappa)
heavy 1: MEVQLVESGGGLVQPGGSLRLSCAASGFNISDYDIHWVRQAPGKGLEWVGGIDPADGSTDYADSVKGRFTISADTSKNTAYLQMNSLRAEDTAVYYCARDYGVYDYWGQGTLVTVSSASTKGPSVFPLAPSSKSTSGGTAALGCLVKDYFPEPVTVSWNSGALTSGVHTFPAVLQSSGLYSLSSVVTVPSSSLGTQTYICNVNHKPSNTKVDKKVEPKSCDKTHTCPPCPAPELLGGPSVFLFPPKPKDTLMISRTPEVTCVVVDVSHEDPEVKFNWYVDGVEVHNAKTKPREEQYNSTYRVVSVLTVLHQDWLNGKEYKCKVSNKALPAPIEKTISKAKGQPREPQVYTLPPSREEMTKNQVSLWCLVKGFYPSDIAVEWESNGQPENNYKTTPPVLDSDGSFLYSKLTVDKSRWQQGNVFSCSVMHEALHNHYTQKSLSLSPGK
heavy 2: MEVQLVESGGGLVQPGGSLRLSCAASGFNIAGYAIHWVRQAPGKGLEWVGLITPTPGTSNYADSVKGRFTISVDTSKNTAYLQMNSLRAEDTAAYYCARDYRGVYLYSFYYDYWGQGTLVTVSSASTKGPSVFPLAPSSKSTSGGTAALGCLVKDYFPEPVTVSWNSGALTSGVHTFPAVLQSSGLYSLSSVVTVPSSSLGTQTYICNVNHKPSNTKVDKKVEPKSCDKTHTCPPCPAPELLGGPSVFLFPPKPKDTLMISRTPEVTCVVVDVSHEDPEVKFNWYVDGVEVHNAKTKPREEQYNSTYRVVSVLTVLHQDWLNGKEYKCKVSNKALPAPIEKTISKAKGQPREPQVYTLPPSREEMTKNQVSLSCAVKGFYPSDIAVEWESNGQPENNYKTTPPVLDSDGSFLVSKLTVDKSRWQQGNVFSCSVMHEALHNHYTQKSLSLSPGK
light: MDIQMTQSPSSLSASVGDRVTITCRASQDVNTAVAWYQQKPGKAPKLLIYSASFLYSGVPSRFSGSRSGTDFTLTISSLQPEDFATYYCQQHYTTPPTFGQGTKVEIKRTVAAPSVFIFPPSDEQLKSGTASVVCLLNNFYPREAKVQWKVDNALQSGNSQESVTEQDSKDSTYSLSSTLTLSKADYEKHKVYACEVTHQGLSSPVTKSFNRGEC
modifications: pAMF at F404 (EU), linked to LP8
With B2, the “cell killing EC50, NTERA-2 cells” value worked out at 0.024 nM and the “cell killing Span, NTERA-2 cells” value worked out at 89%.
